For experiment [1], the target named is T1, eIF4E, purified recombinant human full-length (human, UniProt P06730 1-217).
T1 construct: eIF4E, human, full-length clone in pET11d; m7GTP was present at immobilisation and in the crystals; also called pure eIF4E; eukaryotic translation initiation factor 4E
Briefly: SPR; 4E-BP1^4ALA over eIF4E amine-coupled to a CM5 chip; single or multi cycle not told; fitted with a 1:1 model (poor fit) and then with a 2-state model; n = 3. Particulars: both partners purified. In general terms: Surface plasmon resonance follows binding to a sensor surface in real time, without labels.

Experiment [2] deals with T1, eIF4E, purified recombinant human …. Put plainly: fluorescence polarisation; competition: eIF4E 200 nM, FAM-labelled eIF4G1 peptide 50 nM, VH domains titrated; PBS pH 7.4, 0.1% Tween 20. Conditions: both partners purified. For orientation: Polarisation of emitted light reports the rotation of a fluorescent probe.

FAM = carboxyfluorescein label

T1 sequence (P06730 whole entry): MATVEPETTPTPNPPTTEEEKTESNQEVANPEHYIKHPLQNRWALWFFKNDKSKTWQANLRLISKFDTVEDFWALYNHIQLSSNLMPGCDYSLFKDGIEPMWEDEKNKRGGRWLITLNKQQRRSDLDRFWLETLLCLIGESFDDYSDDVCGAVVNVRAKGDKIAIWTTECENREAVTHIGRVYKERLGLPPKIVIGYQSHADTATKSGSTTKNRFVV

B1: 4E-BP1^4ALA, purified (natural protein, UniProt Q13541 1-118, looked up)
chain: MSGGSSCSQTPSRAIPATRRVVLGDGVQLPPGDYSTAPGGTLFSTAPGGTRIIYDRKFLMECRNAPVTKAPPRDLPTIPGVTSPSSDEPPMEASQSHLRNSPEDKRAGGEESQFEMDI
As usually defined, the Kd is the constant that tells how readily two partners part at equilibrium. For the molecule B1, the Kd in experiment [1] was 0.68 nM.

B2: FAM labelled eIF4G1 peptide (Ac-KKRYSRDFLLALQK-(FAM)-NH2) (peptide)
peptide: Ac-KKRYSRDFLLALQK(FAM)-NH2
notes: also called labelled peptide; tracer peptide; source: synthetic peptide; bought: Mimotopes
For B2, in experiment [2], the binding result is “binds”.

The record behind these values is PMC9388512 (Nature Communications, 2022).
